Reference: article PMC8708908

Molecular target: EcDsbB (Escherichia coli DsbB) (E. coli (endogenous in E. coli JCB817)) (UniProt P0A6M2)
Chain of UniProt P0A6M2 (P0A6M2 whole entry): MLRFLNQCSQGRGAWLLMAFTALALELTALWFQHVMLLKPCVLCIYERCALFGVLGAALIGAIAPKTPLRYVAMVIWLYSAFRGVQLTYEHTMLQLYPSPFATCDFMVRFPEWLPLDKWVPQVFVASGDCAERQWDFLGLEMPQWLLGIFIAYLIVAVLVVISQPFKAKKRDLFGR

CjDsbA2 made in E. coli with the E. coli pelB signal sequence (ss'pelB-cjdsbA2 in pMPM-A6, pUWM1523) (enzyme)
redox state of CjDsbA2 (AMS labelling, Western blot) in E. coli JCB817 (ΔdsbA, with EcDsbB); in JCB818 (ΔdsbAΔdsbB) mostly in the reduced form (87%) (% oxidized form): 33
